Assay results: the supplement of paper PMC7125110
± gives the standard error. For some of these results: Fewer inactive variants are shown than the library holds.

B1: glmS ribozyme (parent)
chain: AUAAAAGCGCCAGAACUACAGAAAUGUAGUUGACGAGGAGGAGGUUUAUCGAAUUUUCGGCGGAUGCCUCCAAA

Tests used:
Conditions in all cases: with glucosamine-6-phosphate
[1] = variants of: B1; test: kcat; higher = faster cleavage; RNA array
In short: (§1)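 Ribozyme variants carrying barcodes were transcribed in situ on sequenced MiSeq chips by E. coli RNA polymerase and tracked at 37 °C with a hybridised Cy3 probe. They were exposed to 40 μM to 10 mM glucosamine-6-phosphate in HEPES/KCl/Mg(OAc)2 buffer. kobs came from exponential decay fits of normalised per-tile medians, and kcat and KM from weighted Michaelis–Menten fits.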

[2] = variants of: B1; test: self-cleavage kobs at 40 uM GlcN6P; higher = faster cleavage; RNA array
In short: as §1

[3] = variants of: B1; test: self-cleavage kobs at 160 uM GlcN6P; higher = faster cleavage; RNA array
In short: as §1

[4] = variants of: B1; test: self-cleavage kobs at 640 uM GlcN6P; higher = faster cleavage; RNA array
In short: as §1

[5] = variants of: B1; test: self-cleavage kobs at 2500 uM GlcN6P; higher = faster cleavage; RNA array
In short: as §1

[6] = variants of: B1; test: self-cleavage kobs at 10000 uM GlcN6P; higher = faster cleavage; RNA array
In short: as §1

[7] = variants of: B1; test: KM; higher = weaker cofactor use; RNA array
In short: as §1

Row | Variant | kcat [1] [s⁻¹] | self-cleavage kobs at 40 uM GlcN6P [2] [s⁻¹] | self-cleavage kobs at 160 uM GlcN6P [3] [s⁻¹] | self-cleavage kobs at 640 uM GlcN6P [4] [s⁻¹] | self-cleavage kobs at 2500 uM GlcN6P [5] [s⁻¹] | self-cleavage kobs at 10000 uM GlcN6P [6] [s⁻¹] | KM [7] [µM]
1 | C16G U55A | 0.00566 ± 0.0022 | 0.00015 ± 1.9e-05 | 0.000313 ± 6.3e-05 | 0.000819 ± 0.00014 | 0.00327 ± 0.00047 | 0.00463 ± 0.00062 | 
2 | C16G U55C | 0.00146 ± 0.00056 | 4.65e-05 ± 1.3e-05 | 0.000158 ± 7.7e-05 | 0.000574 ± 8.2e-05 | 0.000702 ± 0.00013 | 0.00213 ± 0.00033 | 
3 | C16G G32A | 0.0013 ± 0.00037 |  | 7.04e-05 ± 1.7e-05 | 0.0003 ± 5.5e-05 | 0.000434 ± 0.00011 | 0.00115 ± 0.00018 | 2870 ± 1300
4 | C16G G32U | 0.000915 ± 8.9e-05 |  |  | 0.000144 ± 3.7e-05 | 0.00032 ± 8.7e-05 | 0.00068 ± 0.00011 | 3800 ± 700
5 | A15U A33C | 5.35e-05 ± 2.5e-06 | < 1e-05 |  |  | 4.34e-05 ± 1.3e-05 | 4.91e-05 ± 6e-06 | 813 ± 280
6 | C16U A48U | 0.000375 ± 9.7e-06 |  |  | 7.24e-05 ± 1.5e-05 | 0.000181 ± 4.1e-05 | 0.000297 ± 3.3e-05 | 2630 ± 150
7 | C16U A48G | 7.95e-05 ± 1.2e-05 |  |  |  | 6.63e-05 ± 1.1e-05 | 6.95e-05 ± 8.6e-06 | 
8 | A15U G41A | 0.000124 ± 3.5e-05 |  |  | 6.09e-05 ± 1.6e-05 | 0.000147 ± 2.5e-05 | 8.75e-05 ± 2.5e-05 | 
9 | C16U G29U | 0.00871 ± 0.0037 | 0.000315 ± 2.9e-05 | 0.000639 ± 8.5e-05 | 0.00245 ± 0.00028 | 0.00415 ± 0.00061 | 0.0111 ± 0.0014 | 
10 | C16A G51A U56G C68G | 1.58e-05 ± 2.3e-06 |  |  |  |  |  | 
11 | A20C | 0.0144 ± 0.0036 | 0.00153 ± 0.00021 | 0.00529 ± 0.0011 | 0.00992 ± 0.003 | 0.0111 ± 0.0039 |  | 327 ± 110
12 | A15G U31G A39U | 0.00331 ± 0.0014 | 3.3e-05 ± 1.1e-05 | 0.000104 ± 1.8e-05 | 0.000575 ± 0.00013 | 0.000869 ± 0.00014 | 0.00265 ± 0.00042 | 
13 | A15U C70G | 7.6e-05 ± 6.8e-06 |  | 4.66e-05 ± 1.1e-05 | 5.16e-05 ± 7.6e-06 | 7.05e-05 ± 8.4e-06 | 8.19e-05 ± 9.8e-06 | 175 ± 85
14 | C16A G40A | 0.000202 ± 6.3e-05 |  |  |  | 0.000155 ± 2.1e-05 | 0.000154 ± 2.9e-05 | 
15 | C16A U65C | 2.42e-05 ± 3.7e-08 |  |  |  |  |  | 654 ± 8.5
16 | C16G G41U | 0.000139 ± 1.4e-05 |  |  |  | 7.39e-05 ± 1.7e-05 | 0.000107 ± 1.5e-05 | 2720 ± 780

Row | Variant | kcat [1] [s⁻¹] | self-cleavage kobs at 40 uM GlcN6P [2] [s⁻¹] | self-cleavage kobs at 160 uM GlcN6P [3] [s⁻¹] | self-cleavage kobs at 640 uM GlcN6P [4] [s⁻¹] | self-cleavage kobs at 2500 uM GlcN6P [5] [s⁻¹] | self-cleavage kobs at 10000 uM GlcN6P [6] [s⁻¹] | KM [7] [µM]
17 | A15U U31G C71U | 0.00048 ± 0.00012 | 6.97e-05 ± 3.1e-05 | 6.51e-05 ± 1.8e-05 | 0.000238 ± 3.6e-05 | 0.000267 ± 6.8e-05 | 0.000517 ± 9.1e-05 | 
18 | A15G G32C | 0.000278 ± 6.2e-05 |  |  |  | 6.16e-05 ± 1.6e-05 | 0.000154 ± 2e-05 | 8170 ± 3300
19 | A15U A64G | 0.00706 ± 0.00091 | 0.000142 ± 2.5e-05 | 0.00053 ± 0.0001 | 0.00182 ± 0.00029 | 0.00336 ± 0.00058 | 0.0066 ± 0.001 | 1990 ± 370
20 | C16U C70A | 0.000203 ± 1.9e-05 |  | 7.15e-05 ± 9.6e-06 | 0.000148 ± 2.1e-05 | 0.000204 ± 2.2e-05 | 0.000177 ± 2e-05 | 296 ± 79
21 | A15G U65A C71A | 0.000944 ± 0.0002 | 3.84e-05 ± 1.7e-05 |  | 0.000466 ± 5.6e-05 | 0.000535 ± 0.00018 | 0.000965 ± 0.00023 | 755 ± 320
22 | A15U C61A | < 1e-05 | < 1e-05 |  |  |  |  | 829 ± 70
23 | C19A G40C | 0.00125 ± 0.00032 | 7.99e-05 ± 1.9e-05 | 0.000173 ± 5.2e-05 | 0.000434 ± 0.00012 | 0.00156 ± 0.00041 | 0.00113 ± 0.00023 | 832 ± 360
24 | C16A C67A | 0.000254 ± 2.7e-05 |  | 6.97e-05 ± 1.3e-05 | 0.000123 ± 1.2e-05 | 0.00021 ± 3.3e-05 | 0.000248 ± 2.9e-05 | 598 ± 150
25 | A15G G32C C67G | 1.35e-05 ± 1.1e-06 |  |  |  |  |  | 
26 | C16A U55G | 0.00294 ± 0.001 | 4.26e-05 ± 1.2e-05 | 0.000166 ± 3.8e-05 | 0.000304 ± 5.7e-05 | 0.00101 ± 0.00012 | 0.00216 ± 0.00033 | 
27 | C16A C68U | 9.12e-05 ± 2.9e-06 |  |  | 3.93e-05 ± 7.5e-06 | 6.55e-05 ± 6.5e-06 | 8.53e-05 ± 7.2e-06 | 878 ± 110
28 | C16G G29U U54A | 0.024 ± 0.011 | 0.000213 ± 4.2e-05 | 0.000446 ± 0.00014 | 0.00332 ± 0.00054 | 0.0157 ± 0.0041 | 0.0148 ± 0.0026 | 
29 | C16A A33U | 1.2e-05 ± 3e-06 | < 1e-05 | < 1e-05 |  |  |  | 
30 | C16U U57G C61A | 1.37e-05 ± 2e-06 |  |  |  |  |  | 
31 | A15G U46G | 0.00908 ± 0.00054 | 0.000184 ± 2e-05 | 0.000667 ± 0.0001 | 0.00198 ± 0.00026 | 0.00538 ± 0.00091 | 0.00757 ± 0.00068 | 2020 ± 170
